Source: paper PMC2174220
One block for each substance: values may come before it.

Assays:
[1] = target: p62 subunit of dynactin (bovine); experiment: ion exchange chromatography
[2] = target: dynamitin (p50) subunit of dynactin, endogenous bovine (bovine) (UniProt Q3ZCF0); experiment: co-sedimentation
[3] = target: p150^Glued subunit of dynactin (bovine); experiment: co-sedimentation

Chain of p62 subunit of dynactin (bovine) (Q9QUR2 whole entry): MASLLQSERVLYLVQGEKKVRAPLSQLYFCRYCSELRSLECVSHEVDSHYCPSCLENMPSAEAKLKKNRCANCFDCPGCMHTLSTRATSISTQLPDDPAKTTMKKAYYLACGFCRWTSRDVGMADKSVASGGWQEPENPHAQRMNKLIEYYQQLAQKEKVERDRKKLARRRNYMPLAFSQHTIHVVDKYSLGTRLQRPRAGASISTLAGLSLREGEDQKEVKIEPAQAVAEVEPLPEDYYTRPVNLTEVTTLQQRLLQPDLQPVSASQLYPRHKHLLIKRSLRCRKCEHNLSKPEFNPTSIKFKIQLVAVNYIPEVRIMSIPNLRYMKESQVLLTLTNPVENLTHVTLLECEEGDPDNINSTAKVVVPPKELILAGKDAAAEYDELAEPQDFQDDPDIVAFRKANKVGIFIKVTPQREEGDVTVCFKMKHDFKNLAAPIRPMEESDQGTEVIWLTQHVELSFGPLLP

Substance: p27 subunit of dynactin (from UniProt Q148G7 1-190) (natural protein)
stoichiometry N ([1]; scale: p27 per 1 p62): 1

Substance: p25 subunit of dynactin (from UniProt Q9QZB9 1-182) (natural protein)
stoichiometry N ([1]; scale: p25 per 1 p62): 1

Substance: p24 subunit of dynactin (from UniProt Q0P5A1 1-186) (natural protein)
stoichiometry N (p24 per 2 p150^Glued) [3]: 2 | stoichiometry N ([3]; scale: p24 per 2 p150): 1

Next, values leading:

stoichiometry N ([1]; scale: Arp11 per 1 p62): 1
Substance: Arp11, novel actin-related protein of the dynactin pointed-end complex (from UniProt Q3ZBD2 1-417) (natural protein)

stoichiometry N (Arp1 per dynamitin) [2]: 1.97
Substance: Arp1, actin-related protein of the dynactin minifilament (natural protein)

stoichiometry N ([3]; scale: dynamitin per 2 p150): 2
Substance: dynamitin (p50) subunit of dynactin, endogenous bovine (from UniProt Q3ZCF0 1-403) (natural protein)
